In patent US10385380B2, “Personalized protease assay to measure protease activity in neoplasms” (The Regents of the University of California, priority 2014, dated 2019):
“Also recorded” adds a separate entry of the source. Where two headings read alike, the source gives them in different places. Values belong to the substance of their own block, whether it stands above or below them. Where no end group is shown, it is not given here. [ ]: non-standard residue; d: D form. hPhe = N[C@@H](CCc1ccccc1)C(=O)O

What was measured:
[1] = tested on: multiple MMPs; assay: Specificity of first generation cleavable site among MMPs; type: biochemical
Text: In contrast to mRNA expression or copy number detection methods, RACPPs detect in vivo protease activity, thus bypassing the complicated interplay between transcription/translation, pro- and active forms of the enzymes, as well as the presence of inhibitors/activators etc. It was shown that RACPP uptake correlates with tumor burden^15 and with tumor characteristics corresponding to poor survival^18.
RACPPs are capable of monitoring protease activity in real time living animal models of cancer. […] To tease out the involvement of specific individual proteases involved in the various stages of cancer growth, invasion and metastasis, it was sought to identify RACPP cleavable sites that are specific for individual select proteases.

[2] = biological target: T1, MMP-2 (Homo sapiens, UniProt P08253); assay: Cell uptake after cleavage of linker by MMP-2; type: cell-based; settings: cleaved by MMP-2
T1 sequence (P08253 110-660): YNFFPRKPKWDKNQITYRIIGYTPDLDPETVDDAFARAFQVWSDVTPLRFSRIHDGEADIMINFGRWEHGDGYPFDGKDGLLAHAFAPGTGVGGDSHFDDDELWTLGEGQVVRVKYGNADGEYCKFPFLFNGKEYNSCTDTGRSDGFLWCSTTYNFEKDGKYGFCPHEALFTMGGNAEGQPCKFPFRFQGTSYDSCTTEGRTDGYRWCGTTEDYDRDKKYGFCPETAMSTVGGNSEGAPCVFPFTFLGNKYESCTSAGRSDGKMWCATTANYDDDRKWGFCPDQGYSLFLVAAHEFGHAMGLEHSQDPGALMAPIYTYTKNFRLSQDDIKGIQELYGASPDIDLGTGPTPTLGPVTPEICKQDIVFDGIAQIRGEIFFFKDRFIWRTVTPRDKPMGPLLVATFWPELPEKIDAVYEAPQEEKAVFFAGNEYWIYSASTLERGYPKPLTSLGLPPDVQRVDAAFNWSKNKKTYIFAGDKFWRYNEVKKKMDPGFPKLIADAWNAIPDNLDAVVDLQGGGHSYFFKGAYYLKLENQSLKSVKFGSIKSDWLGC
Text: For example, a linker X that includes the amino-acid sequence PLGLAG (SEQ ID NO: 1) may be cleaved by the metalloproteinase enzyme MMP-2 (a major MMP in cancer and inflammation). Cleavage of such a linker X occurs between the central G and L residues, causing cell uptake to increase by 10 to 20-fold. A great deal is known about the substrate preferences of different MMPs, so that linkers X may be designed that are able to bias X to be preferentially sensitive to particular subclasses of MMPs, or to individual members of the large MMP family of proteinases. For example, in some embodiments, linkers X designed to be cleaved by membrane-anchored MMPs are particularly employed because their activity remains localized to the outer surface of the expressing cell. In alternative embodiments, linkers X designed to be cleaved by a soluble secreted MMP are employed where diffusion of cargo C away from the exact location of cleavage may be desired, thereby increasing the spatial distribution of the cargo. Other linkers X cleavable by other MMPs are discussed throughout the application.

[3] = biological target: MMP-14 (Homo sapiens, UniProt P50281); assay: Cleavage of ACPP substrates by purified MMP-14; type: biochemical; settings: versus MMP-2 and MMP-9
Procedure: (§1) FIG. 7 describes selectivity for substrates for MMP2, 9 and 14 (1 uM peptide 20 nM enzyme). A) MT1 selective RSHPHfeTLY (SEQ ID NO: 19).
(§2) FIG. 8A, FIG. 8B and FIG. 8C describe selectivity for substrate cut with MMP-2, MMP9 and MMP-14.
(§3) To generate new substrates for MMPs, amino acids were substituted at key position at and near the cleavage site based on the following rule derived by recent work by Ratnikov et al^26 that the amino acid at a certain position must improve cleavage by the specific enzyme and reduce cleavage by other related enzymes. For increased specificity, an amino acid should be red for the enzyme of interest compared green for the other enzymes at the same substitution position (FIG. 36A). These substrates will be tested by treating 5 μM peptide with 20 nM of each enzyme for 2 hours and analyse by gel electrophoresis.
(§4) FAM/Cy5 ratiometric versions of RACPPs with these sequences were made and tested to confirm selectivity. The preferred form Cy5/Cy7 ratiometric versions for in vivo testing with a pegylated carrier to help with solubility is currently being synthesized. For MMP 11 a similar approach will be adopted in finding selective substrates.^26.

[4] = biological target: MT2-MMP (Homo sapiens, UniProt P51511); assay: Cleavage of RS-(Cit)-G-(homoF)-YLY derivatives by MT2-MMP; type: biochemical
[5] = biological target: MMP9 (Homo sapiens, UniProt P14780); assay: Cleavage of ACPP substrates by purified MMP-9; type: biochemical; settings: versus MMP-2 and MMP-14
Procedure: as §1, §2, §3, §4

[6] = biological target: T1, MMP-2; assay: Cleavage of ACPP substrates by purified MMP-2; type: biochemical; settings: versus MMP-9 and MMP-14
Procedure: as §1, §2, §3, §4

[7] = biological target: urokinase plasminogen activator (uPA) (Homo sapiens, UniProt P00749); assay: Screen of protease substrates for cleavage by uPA; type: biochemical; settings: substrate in the context of an ACPP
Procedure: (§5) To generate novel RACPP species that are selective for uPA, a set of protease substrates were screened that were diverse and likely cleaved by serine protease in that they contain either a lysine or arginine residue flanked by diverse amino acids. […] Several other substrates that were reported to be cleaved by uPA were also tested but were not cleaved possible because the constrained structure of the substrate within the context of an ACPP.
To generate novel RACPP species that are specific for uPA, a set of protease substrates were screened that were diverse and likely cleaved by serine protease in that they contain either a lysine or arginine residue flanked by diverse amino acids.

[8] = biological target: tPA (Homo sapiens, UniProt P00750); assay: Screen of protease substrates for cleavage by tPA; type: biochemical; settings: compared with uPA
Procedure: as §5

MMP9, sequence (P14780 94-707): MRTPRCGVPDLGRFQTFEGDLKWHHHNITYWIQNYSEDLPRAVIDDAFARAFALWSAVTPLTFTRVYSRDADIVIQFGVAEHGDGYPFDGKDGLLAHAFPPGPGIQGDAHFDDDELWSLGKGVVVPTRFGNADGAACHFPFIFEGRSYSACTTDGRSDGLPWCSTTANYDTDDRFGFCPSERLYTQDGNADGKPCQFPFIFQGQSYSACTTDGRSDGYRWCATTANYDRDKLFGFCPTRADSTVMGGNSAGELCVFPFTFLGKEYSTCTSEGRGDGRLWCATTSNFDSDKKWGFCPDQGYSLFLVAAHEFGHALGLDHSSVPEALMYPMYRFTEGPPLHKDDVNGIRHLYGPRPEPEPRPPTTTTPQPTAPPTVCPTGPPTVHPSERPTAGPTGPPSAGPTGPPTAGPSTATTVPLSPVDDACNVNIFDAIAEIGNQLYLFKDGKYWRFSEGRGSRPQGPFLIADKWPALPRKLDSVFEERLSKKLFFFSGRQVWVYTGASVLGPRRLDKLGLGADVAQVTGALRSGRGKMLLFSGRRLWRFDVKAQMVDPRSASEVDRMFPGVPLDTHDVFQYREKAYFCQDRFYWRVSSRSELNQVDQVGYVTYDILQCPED
MT2-MMP, sequence (P51511 132-669, species assumed): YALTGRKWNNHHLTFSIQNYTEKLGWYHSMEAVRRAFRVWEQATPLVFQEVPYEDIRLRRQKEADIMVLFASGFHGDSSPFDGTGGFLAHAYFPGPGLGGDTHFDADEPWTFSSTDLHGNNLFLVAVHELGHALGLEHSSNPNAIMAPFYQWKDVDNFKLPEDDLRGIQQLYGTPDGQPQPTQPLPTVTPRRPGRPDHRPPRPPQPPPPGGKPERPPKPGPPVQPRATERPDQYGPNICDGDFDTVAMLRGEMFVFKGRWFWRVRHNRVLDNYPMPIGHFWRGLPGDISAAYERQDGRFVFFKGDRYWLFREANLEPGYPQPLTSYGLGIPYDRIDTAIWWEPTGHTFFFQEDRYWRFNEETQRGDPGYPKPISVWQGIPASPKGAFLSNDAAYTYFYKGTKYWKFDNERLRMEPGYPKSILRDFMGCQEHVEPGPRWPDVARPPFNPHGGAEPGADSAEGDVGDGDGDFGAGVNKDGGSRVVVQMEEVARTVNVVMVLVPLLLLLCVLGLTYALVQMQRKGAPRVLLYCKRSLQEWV
tPA, sequence (P00750 36-562, species assumed): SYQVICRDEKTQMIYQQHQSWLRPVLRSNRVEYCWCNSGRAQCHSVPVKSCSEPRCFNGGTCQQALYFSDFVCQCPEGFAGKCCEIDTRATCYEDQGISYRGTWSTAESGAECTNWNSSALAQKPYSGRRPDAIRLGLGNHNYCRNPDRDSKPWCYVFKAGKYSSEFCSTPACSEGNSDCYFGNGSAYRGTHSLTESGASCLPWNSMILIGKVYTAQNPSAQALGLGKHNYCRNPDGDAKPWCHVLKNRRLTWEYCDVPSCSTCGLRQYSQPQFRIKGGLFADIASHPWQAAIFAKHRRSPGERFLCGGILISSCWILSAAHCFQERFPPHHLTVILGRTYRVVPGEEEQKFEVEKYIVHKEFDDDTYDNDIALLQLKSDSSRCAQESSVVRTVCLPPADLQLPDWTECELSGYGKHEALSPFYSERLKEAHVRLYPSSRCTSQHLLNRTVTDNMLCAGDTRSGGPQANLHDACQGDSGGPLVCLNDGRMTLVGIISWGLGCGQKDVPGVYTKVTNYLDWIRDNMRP

Substance: PLGC(Me)AG
- cleavage by multiple MMPs (lack of specificity) [1]: cut by multiple MMPs
- cleavage by multiple MMPs (lack of specificity) ([1]; listed as PLGC(me)AG): cleaved by multiple proteases

Substance: PLGLAG (cleavable linker)
- increase of cell uptake after cleavage between the central G and L residues [2]: 10 to 20 fold

Substance: RSHG-(homoF)-FLY (RSHG[hPhe]FLY)
- cleavage by / selectivity for MMP-14 (MT1-MMP) [3]: highly selective and efficiently cleaved
- cleavage by / selectivity for MMP-14 (MT1-MMP) ([3]; listed as RSHG(Hfe)FLY): selective

Substance: RSHP[hPhe]TLY
- cleavage by / selectivity for MMP-14 (MT1-MMP) [3]: MMP14 selective
- cleavage by / selectivity for MMP-14 (MT1-MMP) ([3]; listed as RSHPHfeTLY): MT1 selective

Substance: SNPYG-Y (SNPYGY; cleavable linker)
- cleavage by / selectivity for MMP9 [5]: MMP9 selective

Substance: SNPYK-Y (SNPYKY; cleavable linker)
- cleavage by / selectivity for MMP9 [5]: MMP9 selective
- cleavage by / selectivity for MMP9 ([5]; listed as SNPYKY): selective

Second part, led by results:

- cleavage by / selectivity for MMP-14 (MT1-MMP) [3]: MMP14 selective
Substance: RS-(Cit)-G-(homoF)-YLY

- cleavage by MT2-MMP [4]: significant cleavage
Substance: RS-Q-G-(homoF)-YLY (RSQG[hPhe]YLY)

- cleavage by / selectivity for MMP-2 [6]: selectively cleaved
Substance: TIAH/LH

- cleavage by / selectivity for MMP-2 [6]: MMP2 selective
Substance: TIAHLA (cleavable linker)

- cleavage by / selectivity for MMP-2 [6]: MMP-2 selective
Substance: TLSE-LH (TLSELH; cleavable linker)

- cleavage by tPA [8]: to a lesser extent
Substance: YGRAAA (cleavable linker)
- cleavage by uPA [7]: efficiently cleaved; also recorded: increase in Cy5/Cy7 signal ratio
